According to patent US20210388102A1 (IMMUNOGEN, published 2021):

T1: His-tagged soluble human ADAM9 (shADAM9-His) (human, UniProt Q13443 206-697)
T1 construct: Contains an extracellular portion of human ADAM9; also called huADAM9-His; His peptide-tagged soluble huADAM9
T1 sequence: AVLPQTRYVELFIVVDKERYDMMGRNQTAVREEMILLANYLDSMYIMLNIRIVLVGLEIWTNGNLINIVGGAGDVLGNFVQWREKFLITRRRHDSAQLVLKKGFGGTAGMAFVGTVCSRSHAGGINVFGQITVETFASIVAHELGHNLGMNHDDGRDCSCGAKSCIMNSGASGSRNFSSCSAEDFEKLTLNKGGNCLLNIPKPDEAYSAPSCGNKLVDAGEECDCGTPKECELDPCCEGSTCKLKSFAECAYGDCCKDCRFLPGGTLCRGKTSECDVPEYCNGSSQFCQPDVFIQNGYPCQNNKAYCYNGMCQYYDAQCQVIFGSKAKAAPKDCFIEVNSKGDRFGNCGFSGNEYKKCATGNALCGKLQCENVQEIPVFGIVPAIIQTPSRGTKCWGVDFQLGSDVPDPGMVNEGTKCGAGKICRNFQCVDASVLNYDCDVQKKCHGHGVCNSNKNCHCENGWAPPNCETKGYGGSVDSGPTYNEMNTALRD

T2: human ADAM9 (huADAM9) on cells (human, UniProt Q13443 206-819)
T2 construct: The pro-domain is said to be cleaved (Arg-205/Ala-206) in the mature protein; also called Cho-K/huADAM9; Cho-K/hu ADAM9.2
T2 sequence: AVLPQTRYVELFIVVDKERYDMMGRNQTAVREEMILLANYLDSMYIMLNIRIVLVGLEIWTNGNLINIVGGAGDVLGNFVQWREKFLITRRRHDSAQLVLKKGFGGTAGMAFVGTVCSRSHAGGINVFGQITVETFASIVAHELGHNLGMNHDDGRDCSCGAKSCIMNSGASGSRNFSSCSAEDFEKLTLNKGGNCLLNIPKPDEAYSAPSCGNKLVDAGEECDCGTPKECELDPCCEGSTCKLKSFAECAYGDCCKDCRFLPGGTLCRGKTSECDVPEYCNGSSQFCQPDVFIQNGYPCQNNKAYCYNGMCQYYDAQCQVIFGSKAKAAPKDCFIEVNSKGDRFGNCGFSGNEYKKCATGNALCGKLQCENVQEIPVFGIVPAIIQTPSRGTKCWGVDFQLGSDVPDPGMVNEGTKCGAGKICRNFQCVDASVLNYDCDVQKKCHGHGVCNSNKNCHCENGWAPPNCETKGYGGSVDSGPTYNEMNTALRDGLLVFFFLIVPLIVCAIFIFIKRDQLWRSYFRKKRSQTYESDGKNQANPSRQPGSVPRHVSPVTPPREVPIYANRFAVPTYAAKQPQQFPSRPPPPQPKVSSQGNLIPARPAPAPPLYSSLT

T3: cynomolgus monkey ADAM9 (cynoADAM9) on cells (cynomolgus monkey, UniProt Q13443 206-819 (human entry))
T3 construct: also called Cho-K/cynoADAM9 clone 2; Cho-K/cynoADAM9 clone #16
T3 chain: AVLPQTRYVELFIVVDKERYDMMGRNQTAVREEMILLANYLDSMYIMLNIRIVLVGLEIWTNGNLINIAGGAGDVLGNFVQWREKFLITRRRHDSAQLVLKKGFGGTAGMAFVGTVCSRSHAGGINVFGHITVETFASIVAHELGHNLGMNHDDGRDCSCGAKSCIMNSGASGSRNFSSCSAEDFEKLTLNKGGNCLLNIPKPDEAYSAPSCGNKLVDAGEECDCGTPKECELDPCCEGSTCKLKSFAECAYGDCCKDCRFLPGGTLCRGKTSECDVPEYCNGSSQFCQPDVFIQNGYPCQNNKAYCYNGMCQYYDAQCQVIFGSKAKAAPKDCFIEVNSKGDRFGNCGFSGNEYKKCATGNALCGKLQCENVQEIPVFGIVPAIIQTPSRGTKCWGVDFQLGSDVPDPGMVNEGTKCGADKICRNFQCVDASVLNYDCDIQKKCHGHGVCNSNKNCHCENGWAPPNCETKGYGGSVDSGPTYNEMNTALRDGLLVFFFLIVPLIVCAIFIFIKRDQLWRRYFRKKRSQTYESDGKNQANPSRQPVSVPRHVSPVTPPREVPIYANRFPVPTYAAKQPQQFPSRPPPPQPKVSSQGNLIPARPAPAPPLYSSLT


Legend:
[1] = target: T1, His-tagged soluble human ADAM9 …; experiment: SPR (BIACORE), antibody captured on anti-human Fc, shADAM9-His 6.25-100 nM, 1:1 Langmuir
Method: The kinetics of binding were determined via BIACORE® analysis binding (normalized 1:1 Langmuir binding model).

[2] = target: T2, human ADAM9 (huADAM9) on cells; experiment: FACS, 300-19 cells expressing human ADAM9
Method: To evaluate the consequence of conjugation on antigen binding, the relative binding affinity of each anti-ADAM9 immunoconjugate and its respective unconjugated antibody to ADAM9 was determined by FACS analysis on 300-19 cells ectopically-expressing either human ADAM9 or cynomolgus ADAM9. Briefly, the ADAM9-expressing 300-19 cells were incubated with dilution series of anti-ADAM9 antibodies or immunoconjugates for 30 min @ 4° C. in FACS buffer (PBS, 0.1% BSA, 0.01% NaN₃), Samples were then washed and incubated with fluorescently-labeled secondary antibody for 30 minutes at 4° C. The normalized mean of fluorescence intensity at each concentration was plotted and the EC50 of binding was calculated using a nonlinear regression analysis (GraphPad Prims 4.0).

[3] = target: T3, cynomolgus monkey ADAM9 (cynoADAM9) on …; experiment: FACS, 300-19 cells expressing cynomolgus ADAM9
[4] = target: T3, cynomolgus monkey ADAM9 (cynoADAM9) on …; experiment: FACS, EC50 on 300-19 cynoADAM9 cells over EC50 on 300-19 huADAM9 cells
[5] = target: T1, His-tagged soluble human ADAM9 …; experiment: ELISA: His-tagged soluble huADAM9 (0.5 µg/mL) captured by plate-coated anti-His antibody; serial dilutions of antibody about 0.2-500 ng/mL; abs @450nm
From the text: The binding of each Fc variant to huADAM9-His and cynoADAM9-His was examined by ELISA assay.

Row | Binder | Kd [1] [nM] | EC50 (read off the curve) [5] [ng/mL] | further results
1 | hMAB-A (3.3) (antibody, V domains shown, also called hMAB-A VH(3)/hMAB-A VL(3)) VH: EVQLVESGGGLVKPGGSLRLSCAASGFTFSSYWMHWVRQAPGKGLEWVGEIIPIFGHTNYNERFQGRFTISLDNSKNTLYLQMGSLRAEDTAVYYCARGGYYYYGSRDYFDYWGQGTTVTVSS VL: DIVMTQSPDSLAVSLGERATISCRASQSVDYSGDSYMNWYQQKPGQPPKLLIYAASDLESGIPARFSGSGSGTDFTLTISSLEPEDFATYYCQQSHEDPFTFGQGTKLEIK | 1.4 |  | 
2 | hMAB-A(2I.2)-S442C (antibody, IgG1 kappa with engineered Cys S442C (EU index); also called hMAB-A (2I.2)(C)) heavy: not shown light: DIVMTQSPDSLAVSLGERATISCKASQSVDYSGDSYMNWYQQKPGQPPKLLIYAASDLESGIPARFSGSGSGTDFTLTISSLEPEDFATYYCQQSHEDPFTFGQGTKLEIKRTVAAPSVFIFPPSDEQLKSGTASVVCLLNNFYPREAKVQWKVDNALQSGNSQESVTEQDSKDSTYSLSSTLTLSKADYEKHKVYACEVTHQGLSSPVTKSFNRGEC |  | ~9 | EC50 [2]: 1.33 nM; EC50 [3]: 3.8 nM; cyno/human (ratio of EC50) [4]: 3

Continued, in another order:

Row | Kd [1] [nM] | EC50 (read off the curve) [5] [ng/mL] | Binder | further results
3 |  | ~9 | hMAB-A (2I.2)(AA) (antibody, human IgG1, kappa, L234A L235A, Last residue X is lysine or absent; also called L234A/L235A Fc variant of hMAB-A (2I.2)) heavy: not shown light: DIVMTQSPDSLAVSLGERATISCKASQSVDYSGDSYMNWYQQKPGQPPKLLIYAASDLESGIPARFSGSGSGTDFTLTISSLEPEDFATYYCQQSHEDPFTFGQGTKLEIKRTVAAPSVFIFPPSDEQLKSGTASVVCLLNNFYPREAKVQWKVDNALQSGNSQESVTEQDSKDSTYSLSSTLTLSKADYEKHKVYACEVTHQGLSSPVTKSFNRGEC | 
4 | 3.5 |  | hMAB-A (1.1) (antibody, V domains shown, also called hMAB-A VH(1)/hMAB-A VL(1)) VH: EVQLVESGGGLVKPGGSLRLSCAASGFTFSSYWMHWVRQAPGKGLEWVGEIIPINGHTNYNEKFKSRFTISLDNSKNTLYLQMGSLRAEDTAVYYCARGGYYYYGSRDYFDYWGQGTTVTVSS VL: DIVMTQSPDSLAVSLGERATISCKASQSVDYDGDSYMNWYQQKPGQPPKLLIYAASDLESGIPARFSGSGSGTDFTLTISSLEPEDFATYYCQQSHEDPFTFGQGTKLEIK | 
5 |  | ~9 | hMAB-A (2I.2)(AA/C) (antibody, Last residue X is lysine or absent; also called L234A/L235A/S442C Fc variant of hMAB-A (2I.2)) heavy: EVQLVESGGGLVKPGGSLRLSCAASGFTFSSYWMHWVRQAPGKGLEWVGEIIPIFGHTNYNEKFKSRFTISLDNSKNTLYLQMGSLRAEDTAVYYCARGGYYYYPRQGFLDYWGQGTTVTVSSASTKGPSVFPLAPSSKSTSGGTAALGCLVKDYFPEPVTVSWNSGALTSGVHTFPAVLQSSGLYSLSSVVTVPSSSLGTQTYICNVNHKPSNTKVDKRVEPKSCDKTHTCPPCPAPEAAGGPSVFLFPPKPKDTLMISRTPEVTCVVVDVSHEDPEVKFNWYVDGVEVHNAKTKPREEQYNSTYRVVSVLTVLHQDWLNGKEYKCKVSNKALPAPIEKTISKAKGQPREPQVYTLPPSREEMTKNQVSLTCLVKGFYPSDIAVEWESNGQPENNYKTTPPVLDSDGSFFLYSKLTVDKSRWQQGNVFSCSVMHEALHNHYTQKSLCLSPGK light: DIVMTQSPDSLAVSLGERATISCKASQSVDYSGDSYMNWYQQKPGQPPKLLIYAASDLESGIPARFSGSGSGTDFTLTISSLEPEDFATYYCQQSHEDPFTFGQGTKLEIKRTVAAPSVFIFPPSDEQLKSGTASVVCLLNNFYPREAKVQWKVDNALQSGNSQESVTEQDSKDSTYSLSSTLTLSKADYEKHKVYACEVTHQGLSSPVTKSFNRGEC | 
